Read-outs that look alike come from different tables or passages of the source.
Key:
Assay in all cases: other fluorescence titration
[1] = biological target: cpSRP54(234C)-acrylodan (Arabidopsis thaliana) (UniProt P37107)
[2] = biological target: acrylodan-labeled cpSRP54(234C, A142W) (Arabidopsis thaliana)
[3] = biological target: cpSRP54(234C)-acrylodan (Arabidopsis thaliana) (UniProt P37107); remark: listed apart in the source

kon [1]: 157000 M⁻¹ s⁻¹
apparent dissociation rate constant (before subtracting GTP hydrolysis) [2]: 0.038 s⁻¹
koff [2]: 0.03 s⁻¹
kon [2]: 190000 M⁻¹ s⁻¹
kon [3]: 230000 M⁻¹ s⁻¹
B1: cpFtsY (chloroplast SRP receptor), wildtype (natural protein)
chain: CSAGPSGFFTRLGRLIKEKAKSDVEKVFSGFSKTRENLAVIDELLLFWNLAETDRVLDELEEALLVSDFGPKITVRIVERLREDIMSGKLKSGSEIKDALKESVLEMLAKKNSKTELQLGFRKPAVIMIVGVNGGGKTTSLGKLAHRLKNEGTKVLMAAGDTFRAAASDQLEIWAERTGCEIVVAEGDKAKAATVLSKAVKRGKEEGYDVVLCDTSGRLHTNYSLMEELIACKKAVGKIVSGAPNEILLVLDGNTGLNMLPQAREFNEVVGITGLILTKLDGSARGGCVVSVVEELGIPVKFIGVGEAVEDLQPFDPEAFVNAIFS
